Consider 69 sequences from the domain aggregation screens of Martell et al. (2025).

This series in a line: soluble fraction after stress (log2 fold change); higher = more stays soluble; pooled small domains, quantitative proteomics. Conditions: stress: pH 4. Summed up:
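Following acid stress at pH 4, the amount of each small protein domain still soluble was measured in pooled custom libraries by high-throughput quantitative proteomics. Its fold change, on a log2 scale, is higher when more of the domain stayed soluble. This fold change is taken as a measure of aggregation propensity.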
With “HMNDEFYAVVRESYAGYALVKPLDEDVGYDILSVSVKNLKVGDIIRLKVKNIKEIYPPEAEVLEVEVLQ”, the “soluble fraction (log2)” value is -1.59. Take “HMNDEQFAIAKNDLLLSLYDGKEVNNSAAEYIIAWESLEKSPSDYISSQLKNTAESIIKISFD”: the “soluble fraction (log2)” value turned out to be 0.0518.

For “HMNDFVTVPDLQGIFYSEAIKKIDKMGLKEGSIQFVNQDKFLPNTVLNQNPKEGTKVSQDSPINLIIS”, the “soluble fraction (log2)” value is -0.594. As for “HMNDILETISNQIRDLRVSKKITQQELAERTNLSVPYISQIENGHRNISLETFIKIVDALDIPLSDFFLP”, the “soluble fraction (log2)” value is -1.11.

For “HMNDITVNVEDSKLIVTSNNPEKLPLYIMDIQGHILDKSEITAGTYSFPISDRGTYIVRIGENVYKVI”, the “soluble fraction (log2)” value was 0.186. As for “HMNDLKVGELAKRGNVTAETVRHYTREGLLSPTRHPDNGYQLFSATDLERLHFIQRARKLGFSVAEIRDIL”, the “soluble fraction (log2)” value was -0.278. For “HMNDLVTWDRYKIELGDTLSEIAQKLVTRVDILKTVNQIQGTRIIAGNSLMVPRTTDTNVLTYL”, the “soluble fraction (log2)” value was -0.728.

Turning to “HMNDPIGDMLTRIRNAQMRGKSTVSTPASKLRAWVLEVLASEGYIRGFERATTDNGQGELVISLD”, the “soluble fraction (log2)” value was -0.253. In the case of “HMNDREAAYEDLPDELVRVGQKVFIKSLETEGVIVQPPNKKGEVRVRSGNISTNVKRSDLGLPIEKP” it was 0.149; in that of “HMNDRRQDVFELLKSSERPVSAADLAHKFGVTRQVIVADIALLRASDIDIVSTNRGYILKANL”, 0.0252. In the case of “HMNDYNLTDREKEVLTFLFQGLEYKEIGMKMSVSPNTIRNHISNIYKKLHVTSKTQAIRVFLNN” it was -0.0426; in that of “HMNEAMIMIDLKGKSRDEAVKELDELNLKYRFTGNGIVKDQKPKAGEEINSDTVVEVELSEIK”, -0.105. Take “HMNEDYFTIAGYASLRGVNIDTSKANMLGRKATKLSREYGYDIGKVTDTRFGKVNSYHLDILKSIFEF”: the “soluble fraction (log2)” value is -0.646. In the case of “HMNEFSYLSELGSEKGDLIKGLQLVQSREGYVSDDAIRAISKHFSIAEAEVEGVLTFYAQFK” it was -1.25. In the case of “HMNEIESFSNTKNPFSLTFKTSKDSSYKVEASSNLKKWTTLSQIKGTGNPITFTESRRILFRKQYYRVTLS” it was 0.102; in that of “HMNEISFYPNPAKESLTVKGLSEITSYSISDINGKLIQYGTTFDRINLEKLTKGFYFLTIGNTISKKLIV”, -0.0595. For the sequence “HMNEISLKEITIEEDHPWRDKKIKELDLKEHILVAMIRRKDQDIIPNGETKIYKDDILVIYD”, the “soluble fraction (log2)” value is -1.73.

“HMNEKFNVYPIPVYNNLNITGLSKPVTYLISSIDGKTIKNGVFQESIDVSDLKSGLYFLQVETKDPVKFIK”: the “soluble fraction (log2)” value was -0.999. In the case of “HMNEKLNEYLNQVKAYLNTSDNKEDIIKELEAVVLEKAEKKYGQITDESISKILSEFGSPAEVAKEYS” it was -0.103.

“HMNEKLRNYIDTLFEHAPTTVRAVELKEEMFQNLTDKYNDLIAQGKSEEAAFNIAVASIGDVDSLIAGLS”: the “soluble fraction (log2)” value was -0.459.

Regarding “HMNELGSLIKRKREELGLSQEELARILGYKHKSSINKIELGLADVPRTKVPAFAKALGMTPVEFS”, the “soluble fraction (log2)” value worked out at 0.063. For the sequence “HMNELPSVIIMKNGRTRPYELQEISKDEEWLNQTIREHGIEPKDIFIAEFWDGRTAFILNDGRIVK”, the “soluble fraction (log2)” value is -1.14. In the case of “HMNERIKSLRKALGLTQQEFADKLGISRGNIGAYEVGKNAPSDAVISLIVRIFNTNENWLRTGEGEM”, the “soluble fraction (log2)” value is -0.246. In the case of “HMNETSRTRALNILGLKATATQEDIKKAYRSLAKEYHPDKLVGVSEGVKKISEEKFREINEAYEYLI” it was -0.00502; in that of “HMNEVIIKNWSNAVGRNIKIKTKRGRPIFGRLLAINDQQLTIASKYMRGNATITVAREDVVSMSVS”, 0.22. In the case of “HMNEVRINTAHIEHKYLGEVKVLDIQEMRNARGRDADPLAFLAIRFWSPRGVLVRVKDSRDATPYWLIS” it was -0.227. In the case of “HMNEYHRNISDEEFVRDIKETAIKLKKETLTGVEYSQNGKYHASTIIHRFGSWKKALELAELNTK” it was 0.257; in that of “HMNFNYPVIVKNSRINVSGVLSAAKLYTINGQLLQSYKGSGEFTSKTLTKGIYILQVDNARTKVLV”, ≥ 0.43; in that of “HMNFSKEYILVHSYKEIDILDALIVKYEATLVNREFDLFINSYIKINEDYAKLFRDEIISKTSGSMSIKEL”, -2.12. “HMNFTKHPENPNFVVYRFTDPERANSFRAELIANNISFEEDTEKKKQLIYTLFAIHTKYYNQSMQINIK”: the “soluble fraction (log2)” value is -0.0767. In the case of “HMNFTVTDKNAVLYSNDNTKVYESPDINSKLVTTIAKDLPVNVTGITSNGWFRISLEGTYYVPGNGLEQR” it was -0.251; in that of “HMNGADPYEQLGVTRDASDDELKAAHRKLSRENHPDTLMAKGMPPEFIEQANDKMARINAAWDQIRKERGI”, 0.124; in that of “HMNGAITLRVRPSDEGKRLDVFVVSQLTGYTRSFVAGLIGDRHFLVNGQPKKPGYRIKSSDTISGVIPAPA”, 0.157. In the case of “HMNGARALAGAIAEAIRKQVYRVNERLPAERELASHYDVSRGTLRSALALLEQEGLVTRKVGSGTFVMPP” it was 0.161; in that of “HMNGNLRAQVLELMGRADYEPLNKSELSRKLDLQGSDRSSLRILMDELERDHSVVRLKKGRFALKVV”, 0.0349. In the case of “HMNGQFIELKNTTGTIIEARVLSFQNGKVKLQRNDGLIFVASISIFDSESIEVIKQKVAEISESKKS” it was -0.0246. With “HMNGQITPSRAKEIALGHAGVSEGSANFKKIKLDNKNGRPAYEIEFIANNSRYEFEINASNGSIIKFNK”, the “soluble fraction (log2)” value is -0.0812.

In the case of “HMNGYGALVRLGRSRGWVTVEEINDHLPESAVRTAENVQEITEALGRLSIKVFETRPDEDDLLIT”, the “soluble fraction (log2)” value is -0.613. In the case of “HMNHGDATTETQAEIMAILSDMKPHPITELNTIKRPYEQIDTALTYLINEEKIYRMDGMIFIG” it was -0.915. As to “HMNHYTEEYILKRMKDFFTTHAYITRRDIESLFGFRRSYATKWLKHFRESGVLKQSGPVNSAVYLL”, the “soluble fraction (log2)” value is -1.12. As to “HMNIAESIRKYRKASGLTQEEMAKRLGVTTPAVSKWENGITNPDIALLAPIARLFHISVDTLLSYR”, the “soluble fraction (log2)” value was determined as 0.0976. In the case of “HMNIDKLVGSTGTVVRSVTPDTAGLVRVNDEDWRASAEEILYERDAIVVEGIEGVTLIVSKLS” it was -1.54; in that of “HMNIETHIVPKLLAPIRLQEYGVGIFNNIPTKSALKKALKKQLITVDKTVATTATFIKGGETIELAYQ”, -0.299; in that of “HMNIGEKIKTLRENNNISIEELAEKINDSIENILKYENNELEPTLDKKLALSIALGVTLSDLS”, -0.975. Consider “HMNIGELINKKRTELGLTLEEVGNAVGVSKSTVKKWEDGFISNMRRDKISKLAKVLEMNPVSLITGE”, for which the “soluble fraction (log2)” value is -0.0212. In the case of “HMNIGSKLRYLIEEANITQRQLADALHISPSALNGYINQGKEPDYATLVRIADYFHTSTDYLLGHSNIR” it was -0.202; in that of “HMNIIATHTVPAIEQKIRLQEYAISIFPQINSRSALKKAIAKKLVLLDGERASTADWIQPGQKIELLEDK”, -0.274.

Regarding “HMNILAPFWERFGLSAFAAGNYDRAEGYFRKLEQKDPNSMSVLRNLGLILMAKGDAEGAEAYLLREEKL”, the “soluble fraction (log2)” value is -0.643. In the case of “HMNILKKDKRLWDENNLNKPLLFELLENYDKEIFELLLTDKDIKAKFFVQAGESYVFKYDDFRFAIEQN” it was -1.75; in that of “HMNIMAQDWISSPMGPISFKSNQHGLVKIGWGEVPRENTEQPNLEFTRKWLVDYFEGKASPLPYF”, -1.55; in that of “HMNIQGIFGRNLKQKRLEKGMTQEQLAEKAGVSTDTVKRYESGKYDGIRLDMAWYMANALDTPLQALLPP”, 0.0744. In the case of “HMNISALKGKIGEVYLKIPAHNAGKGKVLISLKGTHHELYAITRSGEDISSGEFVKVIEIEDEILVVEK” it was -0.537.

For the sequence “HMNITFAENIKQFRKAKSMSMEELGKRLGKAKSSISAWENGKRTPKINELKSISEALGVTISQLLGF”, the “soluble fraction (log2)” value was -0.293. In the case of “HMNIYIEFGRRLAFIRQNSKLSQSQIAQKLNIAQSTYAGYEKGVRKIPLEIIVQLSKILNISPTILILG” it was -0.618; in that of “HMNKADFLRKLDRELSVLDQEERKEILSFYEERFYTGTNYENKTELDIINELENPEIIAKNVLEEYGV”, -1.45. Regarding “HMNKDEFLRRLEDALSGEVPASVIRENLNYYADYLSQELGKGRTMDEIIEEIGEPNIVARTIINSAEAA”, the “soluble fraction (log2)” value is -0.602.

In the case of “HMNKDWQDEVALQRYTMITPLLSEDLDNAKRIAMREKIAQDNLTTARSLYRYEKAYRENGFQGLRPTD”, the “soluble fraction (log2)” value was -0.262.

Regarding “HMNKEIEDYVATYSSMKAKEAAAIFDTMTSDLDLVAKILEAMSADDRAKILEQMNEENAARLTKMMD”, the “soluble fraction (log2)” value is -0.654. Consider “HMNKEQIASNIAEARKRSGLNQSELARRLGIRPQSVQQWEKGTATPKLDRLTAIAQVLGVSLESLTG”, for which the “soluble fraction (log2)” value is 0.22. In the case of “HMNKFADLAGNIIYNENGVEVFNFGKYKGQPVAEVFKKDIGYYGWIQNADFPRYTKKVFTAIQLKSK” it was -0.0985; in that of “HMNKIDVVEVDMSKPYEDMTVTELQNVILGKLASNGPVTDQMKKDVAENIYHDSLVNWAKSF”, -0.303. As for “HMNKIENLSQTILNILRKDHSQAFNYKQIAAKLQLDDPSSRNQIVKKLKDLQGKGTIQEIERGKYILTP”, the “soluble fraction (log2)” value was ≥ 0.43. Turning to “HMNKITIDQAKEIALNHAKLTAEQVSFIRTESEFDDGIEKYNIEFYYNNQKYDYDINAVNGQIIQYDLEG”, the “soluble fraction (log2)” value was -0.23. In the case of “HMNKITIEEAKSIALKHSNLDESQVSFIRSEYDFDNGIEKYEIEFYYNNNKYEYEINAKTGDIISYDYDI” it was -0.528; in that of “HMNKKAAYKDMAGYFAEMKSKDAADILSRLKDEDIIGIFNEMPRDMVAEMLQKMDRDKATTLTRKML”, 0.235. With “HMNKKEQYQNIISNFLEKMSEEDRLIFNMHFFKSINISQIARSIDREGYYVKTKIENLLADLKSLMIGNNL”, the “soluble fraction (log2)” value was -1.17. In the case of “HMNKKETRLNNFIHFLKIRNSITVKEMANHLNVSEMTVRRDIKELTADHTINFENGKIMFNPQSSL” it was 0.33. Regarding “HMNKLIIDAAEDKIFFMIMNNDISYNISHENTKINFEKLIILINDFLSSKKLKINDITGLYV”, the “soluble fraction (log2)” value was -0.233. On to “HMNKNIKIPNISNLSREDAESVLKESGISVSTEIKEVESDTIEKGKVVKTEPSIGSTVKQGRTITIYISSG”, for which the “soluble fraction (log2)” value was found to be 0.092.
